From US11124558B2, “Use of tetranectin and peptide agonists to treat inflammatory diseases” (The Feinstein Institutes for Medical Research, priority 2017, dated 2021)

Assays:
[1] = target: apolipoprotein A1 (Apo-A1); settings: ref [58]; read-out: Kd of TN binding to Apo-A1; cited from earlier work
HMGB1 release = assay: LPS/SAA-induced HMGB1 release, summary statement (cells not specified); format: cell-based
[2] = test system: HMGB1 release, primary murine peritoneal macrophages; assay: LPS- or SAA-induced HMGB1 release in primary murine peritoneal macrophages (Western blotting); format: cell-based; settings: for inhibition of LPS- or SAA-induced HMGB1 release: primary murine peritoneal macrophages, 16 h, serum-free OPTI-MEM I, TN from HEK293 or E. coli
Description: (§1) A, B, Primary murine peritoneal macrophages. C, Primary human peripheral blood mononuclear cells (HuPBMCs). Murine macrophages or human monocytes (HuPBMCs) were cultured in serum-free OPTI-MEM I medium, and stimulated with LPS or SAA for 16 h at the indicated concentrations. The extracellular HMGB1 levels were determined by Western blotting, and expressed as % of maximal stimulation by LPS or SAA alone.
(§2) Immune-modulating properties of tetranectin: To explore TN's immune-modulating properties, its effects on the LPS- and SAA-induced HMGB1 release were examined in murine macrophage and human monocyte cultures. […] This inhibition was TN-dose-dependent, evident at concentrations as low as 5.0 μg/ml, and became more dramatic (with 50-100% inhibition) at higher doses.
(§3) Effects of TN on the LPS-, IFN-γ-, or SAA-induced HMGB1 release. To elucidate the regulatory mechanisms of HMGB1 release, we will examine the impact of TN and its peptide agonists on the HMGB1 release induced by a wide array of inflammatory stimuli including the crude LPS [75], IFN-γ [76] and SAA [77], in macrophage and monocyte cultures. Primary peritoneal macrophages will be isolated from the Balb/C mice (both male and female, 7-8 weeks, 20-25 g) at 2-3 days after intraperitoneal injection of 2 ml thioglycollate broth (4%, Difco, Detroit, Mich.) as previously described. Human peripheral blood mononuclear cells (HuPBMCs) will be isolated from human blood obtained from the Long Island Blood Bank (NY) by density gradient centrifugation through Ficoll as previously described. At 80-90% confluence, macrophage/monocyte cultures will be stimulated with the crude LPS (Cat. No. L3012, Sigma-Aldrich), IFN-γ (Cat. No. 14777, Sigma-Aldrich), or SAA (Cat. No. 300-13, PeproTech) at different concentrations and for various time periods. The extracellular levels of HMGB1 in the culture medium will be determined by Western blotting as previously described.

[3] = test system: lethal endotoxemia, Balb/C mice; assay: Lethal endotoxemia (LPS) survival in mice; format: in vivo; settings: LPS 5 mg/kg i.p., male Balb/C mice, TN given i.p., survival monitored more than two weeks
Description: FIG. 6A-6C: Recombinant TN protected mice against lethal endotoxemia and sepsis. Male Balb/C mice were subjected to lethal endotoxemia (LPS, 5 mg/kg, i.p., Panel A) or sepsis by cecal ligation and puncture (CLP, Panel B, C), and recombinant TN produced in HEK293 (Panel A, B) or E. coli (Panel C) was given intraperitoneally at indicated dosing regimens. Animal survival rates were monitored for more than two weeks to ensure no later death. Shown in Panel B and C is a summary of two independent experiments with similar results.
Effects of TN or peptide agonist on LSI. Balb/C mice (both male and female, 7-8 weeks, 20-25 g) are subjected to lethal endotoxemia or sepsis as described above, and the recombinant TN is injected (i.p.) at various doses and time points (2, 24, and 48 h) after the onset of endotoxemia or sepsis. Their effects on the outcomes of LSI is assessed by comparing the long-term (two-week) survival rates between the TN-treated groups with saline vehicle-treated controls. By varying the time points (e.g., 2, 12, 24 or 36 h) when the first dose of TN will be given to animals, the therapeutic windows for the TN-based therapy is estimated. […] It will be critical to continue these exciting experiments using other dosing regimens to further validate TN's protective role in LSI.
Effects of TN or peptide agonist supplementation on LSI. Balb/C mice (both male and female, 7-8 weeks, 20-25 g) are subjected to lethal endotoxemia or sepsis as described above, and the recombinant TN will be injected (i.p.) at various doses and time points (2, 24, and 48 h) after the onset of endotoxemia or sepsis. Their effects on the outcomes of LSI will be assessed by comparing the long-term (two-week) survival rates between the TN-treated groups with saline vehicle-treated controls. By varying the time points (e.g., 2, 12, 24 or 36 h) when the first dose of TN will be given to animals, the therapeutic windows for the TN-based therapy will be estimated.

[4] = test system: HMGB1 release, human peripheral blood mononuclear cells (HuPBMCs); assay: LPS- or SAA-induced HMGB1 release in primary human peripheral blood mononuclear cells (Western blotting); format: cell-based; settings: for inhibition of LPS- or SAA-induced HMGB1 release: HuPBMCs / human monocytes, 16 h, TN from HEK293 or E. coli
Description: as §1, §2, §3

[5] = listed as recombinant human TN protein

B1: tetranectin (protein, listed as Homo sapiens)
chain: EPPTQKPKKIVNAKKDVVNTKMFEELKSRLDTLAQEVALLKEQQALQTVCLKGTKVHMKCFLAFTQTKTFHEASEDCISRGGTLGTPQTGSENDALYEYLRQSVGNEAEIWLGLNDMAAEGTWVDMTGARIAYKNWETEITAQPDGGKTENCAVLSGAANGKWFDKRCRDQLPYICQFGIV
In the case of B1, the Kd [1] is listed as 13 nM, the “attenuation of LPS/SAA-induced HMGB1 release” value (HMGB1 release) is listed as “dose-dependently attenuated” and the “effect on LPS- or SAA-induced release of most other cytokines (G-CSF, IL-6, IL-12) and chemokines (KC, LIX, MIP-1α, MIP-2, RANTES)” value ([2]; data not shown, cells not specified) is listed as “did not inhibit”. For the same molecule, the “lowest concentration at which inhibition of HMGB1 release was evident” value ([2]; murine macrophages) was 5.0 µg/mL, the “inhibition of LPS- or SAA-induced HMGB1 release” value [2] was “dose-dependently inhibited” and the “inhibition of LPS- or SAA-induced HMGB1 release” value [2, 5] was “capable of inhibiting”. The “protection against lethal endotoxemia (animal survival)” value (from here on “protection against lethal endotoxemia”) [3] was “significant protection”, the “protection against lethal endotoxemia” value ([3]; listed as Recombinant TN) was “protected” and the “protection against lethal endotoxemia” value ([3]; listed as recombinant TN) was “significant protection”. For the same molecule, the “inhibition of LPS- or SAA-induced HMGB1 release” value [4] was “dose-dependently inhibited”, the “inhibition of LPS- or SAA-induced HMGB1 release” value [4, 5] was “capable of inhibiting” and the “lowest concentration at which inhibition of HMGB1 release was evident” value ([4]; human monocytes) was 5.0 µg/mL. The “inhibition of HMGB1 release at higher doses” value ([4]; human monocytes, doses above 5.0 μg/ml) was 50-100%.
